Tests used:
[1] = tested on: K. pneumoniae; assay: Bacterial agglutination, FITC-labeled K. pneumoniae; conditions: 20 μg/mL protein, 5 mM CaCl2
Experimental: (§1) K. pneumoniae and E. coli DH5α (BCRC) were washed twice in 0.1 M sodium bicarbonate buffer (pH 9.6) and incubated with 0.1 mg/mL fluorescein isothiocyanate (FITC) at 37° C. in the dark. Each of 20 μg/mL of rTMD1, non-tagged rTMD1, mammalian rTMD1, and recombinant TM domains 2 and 3 (rTMD23) was co-incubated with FITC-labeled bacteria (1×10^5CFU/mL) in buffer (20 mM Tris, pH 7.4, 0.15 M NaCl, 5 mM CaCl2, 1 mg/mL BSA) with or without 0.2 M mannose or 5 mM EDTA. Samples were individually placed on a glass slide and fluorescently-labeled bacteria were observed microscopically to evaluate agglutination.

[2] = tested on: K. pneumoniae; assay: K. pneumoniae binding assay (coated wells); conditions: FIG. 4A
Experimental: (§2) K. pneumoniae (3×10^5 CFU/well), E. coli O111:B4 smooth-type LPS (5 μg/well), or bovine serum albumin (BSA, 5 μg/well) in 100 μL of bicarbonate buffer (pH 9.6) were coated onto wells of high-binding microtiter plate (Corning Costar, Cambridge, Mass.). Nonspecific binding was blocked with binding buffer (20 mM Tris-HCl, pH 7.4, 0.15 M NaCl, 5 mM CaCl2) containing 50 mg/mL BSA. Various concentrations of rTMD proteins without or with CD14 (10 μg/mL; R&D Systems) in binding buffer containing 1 mg/mL BSA were added to wells and incubated for 2 hours. In some experiments, 0.2 M mannose, 5 mM EDTA, or Le^y were included in the binding buffer to compete with LPS and rTMD1 binding. Antibody against the c-Myc epitope of the rTMD proteins was added to wells and incubated for 2 hours, and peroxidase-labeled secondary antibody followed. Binding of rTMD proteins was detected by measuring absorbance at 450 nm.

[3] = Clearance of LPS in circulation (Limulus amebocyte lysate test); type: in vivo; conditions: LPS 20 mg/kg i.p.; rTMD1 10 mg/kg i.v.
Experimental: Male FVB mice (8-10 weeks old) were used to model sepsis in vivo. The Institutional Animal Care and Use Committee of the National Cheng Kung University approved procedures. In the chronic endotoxemia model, various concentrations of rTMD1 or rTMD proteins in equi-molar amounts were administrated by tail intravenous (i.v.) injection and LPS (20 mg/kg) or K. pneumoniae (5×10^2 CFU/mouse, BCRC) was administrated by intraperitoneal (i.p.) injection. After 6 or 12 hours, mice were sacrificed by pentobarbital anesthesia (50 mg/kg; i.p.). […] The half-life of rTMD1 in the circulation was determined by i.v. injection of rTMD1 (10 mg/kg, equals 436.64 nmole/kg) and serum samples were collected at various time intervals. The levels of rTMD1 in the collected sera were determined by a sandwich ELISA which employed anti-c-Myc monoclonal antibody and TM-H300 as capture and detection antibodies (both from Santa Cruz Biotechnology), respectively. […] Mortality was monitored every 6-12 hours until all mice in either experimental group died. […] Serum samples were collected at various time intervals and the amount of LPS was determined by Limulus amebocyte lysate test (Associates of Cape Cod, E. Falmouth, Mass.). […] Outgrowth of K. pneumoniae was quantified by plating serial dilutions of blood samples on blood agar plates and enumerating colonies after overnight incubation at 37° C.

[4] = tested on: E. coli DH5α; assay: Bacterial agglutination, FITC-labeled E. coli DH5α; conditions: 20 μg/mL protein, 5 mM CaCl2
Experimental: as §1

[5] = tested on: THP-1 cells; assay: THP-1 phagocytosis assay with FITC-labeled K. pneumoniae; type: cell-based, Human; conditions: activated THP-1 cells
Experimental: Human leukemia monocytic THP-1 cells and murine macrophage cell line RAW 264.7 were obtained from the American Type Culture Collection. THP-1 cells were grown in suspension in RPMI-1640 supplemented with 10 mM HEPES, 1 mM sodium pyruvate, 0.1% β-mercaptoethanol, 100 U/ml penicillin, 100 µg/ml streptomycin, and 10% fetal bovine serum (FBS). RAW 264.7 cells were grown as an adhered layer in Dulbecco's modified Eagle's medium with 4 mM L-glutamine adjusted to contain 1.5 g/l sodium bicarbonate and 4.5 g/l glucose, 100 U/ml penicillin, […] streptomycin, and 10% FBS under a humidified 5% CO2 atmosphere at 37° C. For differentiation, THP-1 cells were plated in medium containing 10 nM PMA and allowed to adhere for 18 h.
FITC-labeled K. pneumoniae (1×10^5 CFU/well) were pre-incubated with rTMD1 at 37° C. for 30 minutes before adding to differentiated THP-1 cells. After incubation for 2 hours the THP-1 cells were washed twice with ice-cold PBS prior to fluorescence microscopy, or were further trypsinized, resuspended in PBS, and analyzed in a fluorescence-activated cell sorter (FACS; Becton Dickinson, San Jose, Calif.) to measure THP-1 cell intracellular fluorescence. Green fluorescence data from 10,000 events (cells) per condition collected at 530 nm on a log scale were analyzed with CellQuest™ software (Becton Dickinson).

[6] = biological target: T1, binding of CD14 to LPS (Homo sapiens, UniProt P08571); assay: Blockage of the binding of CD14 to LPS; conditions: FIG. 4D
T1 construct: purchased R&D Systems
T1 sequence (P08571 20-352 limits assumed): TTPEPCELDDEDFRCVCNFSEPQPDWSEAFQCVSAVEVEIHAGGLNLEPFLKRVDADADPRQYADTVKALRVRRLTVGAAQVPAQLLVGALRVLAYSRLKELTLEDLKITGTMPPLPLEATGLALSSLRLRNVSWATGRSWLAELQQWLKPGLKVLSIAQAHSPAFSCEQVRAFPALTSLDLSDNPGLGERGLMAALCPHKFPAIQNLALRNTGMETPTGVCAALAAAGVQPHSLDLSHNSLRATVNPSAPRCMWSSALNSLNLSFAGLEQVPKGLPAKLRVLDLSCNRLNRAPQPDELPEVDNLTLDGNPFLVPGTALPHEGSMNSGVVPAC
Experimental: as §2

B1: rTMD1: recombinant human thrombomodulin N-terminal lectin-like domain (residues Ala1-Ala155) with 6×His tag and c-Myc epitope, Pichia pastoris expressed (protein)
chain: EFAPAEPQPGGSQCVEHDCFALYPGPATFLNASQICDGLRGHLMTVRSSVAADVISLLLNGDGGVGRRRLWIGLQLPPGCGDPKRLGPLRGFQWVTGDNNTSYSRWARLDLNGAPLCGPLCVAVSAAEATVPSEPIWEEQQCEVKADGFLCEFHFPAYLEDDDDKIEQKLISEEDLNSAVDHHHHHH
modifications: left off: small tags and cut ends
- agglutination of K. pneumoniae [1]: induced marked agglutination
- binding to K. pneumoniae [2]: specifically bind
- LPS clearance [3]: significantly enhanced
- agglutination of E. coli DH5α [4]: induced marked agglutination
- bacterial phagocytosis by THP-1 cells [5]: markedly increased
- binding of CD14 to LPS [6]: inhibited
